The record followed here is patent publication US20160251703, “ALLERGEN DETECTION” (DOTS DEVICES, INC., published 2016).

The target of one series is Ovomucoid (UniProt P01005 P01005:25-210). The series is described as follows: ovomucoid spiked in mug cake. Particulars: label: 5'-fluorescein, 3'-Dabcyl; hairpin.
Series [1] addresses T1, Lysozyme (egg white) (UniProt P00698 P00698:19-147). The series is described as follows: fluorescence turn-on; 100 uM SPN detects 5 ng/mL lysozyme; 25 C; not altered by milk or BSA (FIG. 10). As to conditions: tags: Pierce (Thermo Scientific); partial duplex with annealed 10-nt quencher linker at 5' end. The procedure:
(§1) Protein samples are diluted to specified concentrations in PBS. The signaling polynucleotide solutions are prepared at 200 μM in 10 mM TRIS-HCl, pH 7.5, heated to 99° C. for 3 minutes and then cooled to room temperature for 20 minutes. Volumes of 60 μL of protein solutions are added to the wells of a 96-well plate. Signaling polynucleotides are added to the wells as soon as possible after the addition of the protein samples. Fluorescence readings are taken immediately with all readings obtained at 25° C. with an excitation wavelength of 495 nm and emission monitored at the fluorescence peak of 519 nm. The signaling polynucleotides were synthesized by TriLink Biotechnologies (San Diego, Calif.), pure lysozyme was obtained from Pierce (Thermoscientific) and BSA was obtained from Sigma Aldrich.
(§2) The data plotted in FIG. 9A indicate that SPN-E* at a concentration of 100 μM detects lysozyme at a 5 ng/mL concentration and increases the detection level to 3 pg/sample. The data plotted in FIG. 9B indicate that SPN-E can be used to detect lysozyme in unprocessed egg white which was diluted 1:20 (sample size was 30 μL). SPN-E gave a minimal signal with BSA as the negative control protein.

The target of series [2] is T1, Lysozyme (egg white). The series is described as follows: fluorescence turn-on; lysozyme spiked into chocolate cake. Particulars: tags: Pierce (Thermo Scientific); label: 5'-fluorescein, 3'-Dabcyl; hairpin. The procedure: A set of binding assays were performed using lysozyme SPNs (MB4, MB5 and MB6). Experimental procedures: Food samples were homogenized as stated above—generally 2.5 ml buffer was added to 0.5 food sample. The samples were homogenized and centrifuged. 25 ul of the sample was added to a 96 flat bottom well plate. The specific SPN was resuspended to a 100 uM concentration and 25 ul of the SPN was added to the plate—final concentration 50 uM. The samples were immediately read with the GloMax Promega plate reader using the blue laser. (detection was quantified as the intensity of FITC minus the background—buffer alone and non-spiked samples).

The target in the next series is Bovine serum albumin (Bos taurus, UniProt P02769 P02769:25-607). The series is described as follows: fluorescence turn-on; minimal signal with BSA negative control. Particulars: tags: Sigma Aldrich; label: 5'-fluorescein, 3'-DABCYL; hairpin. On the procedure:
as §1, §2

The target in series [3] is T1, Lysozyme (egg white). The series is described as follows: fluorescence turn-on; detects lysozyme 0.6-1200 ng/mL; 12 uM SPN; PBS/Tris pH 7.5, 25 C. Particulars: tags: Pierce (Thermo Scientific); label: 5'-fluorescein, 3'-Dabcyl; hairpin. The procedure: as §1
An assay was performed to obtain a dose curve (12 μM of detection of signaling polynucleotide SPN-E per sample). The results are shown in FIG. 8 and indicate that SPN-E detects lysozyme concentrations ranging from 0.6 ng/mL to 1200 ng/mL, translating to less than 50 pg of lysozyme per sample.

T1 sequence (P00698 19-147, one chain of several): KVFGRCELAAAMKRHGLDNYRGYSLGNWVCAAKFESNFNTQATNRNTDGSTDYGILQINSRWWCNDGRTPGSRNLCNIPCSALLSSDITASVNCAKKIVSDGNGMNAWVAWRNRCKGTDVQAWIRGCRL
Chain of Ovomucoid (P01005 25-210, one chain of several): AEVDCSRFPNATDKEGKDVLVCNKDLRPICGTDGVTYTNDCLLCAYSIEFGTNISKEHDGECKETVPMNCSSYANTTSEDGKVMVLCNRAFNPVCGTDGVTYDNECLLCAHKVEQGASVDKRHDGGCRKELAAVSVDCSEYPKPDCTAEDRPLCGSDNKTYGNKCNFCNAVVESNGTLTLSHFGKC
Chain of Bovine serum albumin (P02769 25-607, one chain of several): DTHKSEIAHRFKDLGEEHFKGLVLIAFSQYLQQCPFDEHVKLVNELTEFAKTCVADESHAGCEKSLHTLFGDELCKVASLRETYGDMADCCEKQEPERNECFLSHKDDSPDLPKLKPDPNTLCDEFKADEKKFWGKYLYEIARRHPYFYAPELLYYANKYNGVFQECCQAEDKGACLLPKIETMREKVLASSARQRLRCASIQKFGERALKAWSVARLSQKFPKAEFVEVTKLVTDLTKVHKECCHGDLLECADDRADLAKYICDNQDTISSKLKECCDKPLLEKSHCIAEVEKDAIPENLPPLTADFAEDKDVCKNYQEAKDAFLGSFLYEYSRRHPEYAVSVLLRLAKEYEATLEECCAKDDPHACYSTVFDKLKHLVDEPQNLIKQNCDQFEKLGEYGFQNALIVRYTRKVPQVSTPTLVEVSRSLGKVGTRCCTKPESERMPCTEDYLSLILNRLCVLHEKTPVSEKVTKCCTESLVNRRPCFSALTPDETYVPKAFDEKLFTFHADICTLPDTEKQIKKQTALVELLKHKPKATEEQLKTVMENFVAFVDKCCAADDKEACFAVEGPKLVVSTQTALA

B1: MB9 (ssDNA)
DNA: TCGCACATTCCGCTTCTACCGGGGGGGTCGAGCTGAGTGGATGCGAATCTGTGGGTGGGCCGTAAGTCCGTGTGTGCGAAAATGTGCGA
For B1, the binding result with Ovomucoid is “no binding”.

B2: MB7 (ssDNA)
DNA: TCGCACATTCCGCTTCTACCGGGGGGGTCGAGCTGAGTGGATGCGAATCTGTGGGTGGGCCGTAAGTCCGTGTGTGCGAATGTGCGA
As to B2, in the series with Ovomucoid, the binding result is listed as “no binding”.

B3: SPN-E* (structured_DNA)
DNA 1: TGCAGCTAAGCAGGCGGCTCACAAAACCATTCGCATGCGGC
DNA 2: CTTAGCTGCA
As to B3, the binding result in the series with Lysozyme (egg white) [1] is listed as “binds”.

B4: MB6 (ssDNA)
DNA: TGCAGCTAAGCAGGCGGCTCACAAAACCATTCGCATGCGGCGCTGCA
On to B4, for which, in the series with Lysozyme (egg white) [2], the binding result was “binds”.

B5: MB4 (ssDNA)
DNA: TGCAGCTAAGCAGGCGGCTCACAAAACCATTCGCATGCGGCTGCA
Take B5: the binding result with Lysozyme (egg white) [2] was “binds”.

B6: SPN-E (ssDNA)
DNA: TGCAGCTAAGCAGGCGGCTCACAAAACCATTCGCATGCGGCGCTGC
B6: the binding result with Bovine serum albumin is recorded as “no binding”; in the series with Lysozyme (egg white) [3], “binds”.
